Columns and labels:
[1] = target: BG505 NFL-L555P (HIV-1 BG505 (clade A)); experiment: ELISA, His-captured trimer
[2] = target: BG505 NFL-TD+CC2-D4K_L555P (HIV-1 BG505 (clade A)); experiment: ELISA, His-captured trimer
[3] = target: BG505 NFL-TD+CC2-D4K_L555P w/rEK (HIV-1 BG505 (clade A)); experiment: ELISA, His-captured trimer
[4] = target: 16055 NFL-CC2 (HIV-1 16055 (clade C)); experiment: ELISA, His-captured trimer
[5] = target: 16055 NFL-Q563P (HIV-1 16055 (clade C)); experiment: ELISA, His-captured trimer
[6] = target: 16055 NFL-L555P (HIV-1 16055 (clade C)); experiment: ELISA, His-captured trimer
[7] = target: 16055 NFL-TD+CC2-D4K_L555P (HIV-1 16055 (clade C)); experiment: ELISA, His-captured trimer
[8] = target: 16055 NFL-TD+CC2-D4K_L555P w/rEK (HIV-1 16055 (clade C)); experiment: ELISA, His-captured trimer
[9] = target: BG505 NFL-CC2 (HIV-1 BG505 (clade A)); experiment: ELISA, His-captured trimer
[10] = target: 16055 NFL-TD+CC2-D4K_I559P w/rEK (HIV-1 16055 (clade C)); experiment: ELISA, His-captured trimer
[11] = target: BG505 NFL-TD+CC2-D4K_I559P w/rEK (HIV-1 BG505 (clade A)); experiment: ELISA, His-captured trimer
[12] = target: JRFL NFL-CC2 (HIV-1 JRFL (clade B)); experiment: ELISA, His-captured trimer
[13] = target: 16055 NFL (I559P) parental (HIV-1 16055 (clade C)); experiment: ELISA, His-captured trimer
[14] = target: 16055 NFL-TD+CC2-D4K_I559P (HIV-1 16055 (clade C)); experiment: ELISA, His-captured trimer
[15] = target: BG505 NFL-TD+CC2-D4K_I559P (HIV-1 BG505 (clade A)); experiment: ELISA, His-captured trimer
[16] = target: BG505 NFL (I559P) parental (HIV-1 BG505 (clade A)); experiment: ELISA, His-captured trimer
[17] = target: BG505 NFL-L555P (HIV-1 BG505 (clade A)); experiment: BLI, IgG captured, trimer as analyte
[18] = target: BG505 NFL-TD+CC2-D4K_L555P (HIV-1 BG505 (clade A)); experiment: BLI, IgG captured, trimer as analyte
[19] = target: BG505 NFL-Q562P (HIV-1 BG505 (clade A)); experiment: BLI, IgG captured, trimer as analyte
[20] = target: BG505 NFL-Q563P (HIV-1 BG505 (clade A)); experiment: BLI, IgG captured, trimer as analyte
[21] = target: 16055 NFL-CC2 (HIV-1 16055 (clade C)); experiment: BLI, IgG captured, trimer as analyte
[22] = target: 16055 NFL-Q563P (HIV-1 16055 (clade C)); experiment: BLI, IgG captured, trimer as analyte
[23] = target: BG505 NFL-S553P (HIV-1 BG505 (clade A)); experiment: BLI, IgG captured, trimer as analyte
[24] = target: 16055 NFL-Q562P (HIV-1 16055 (clade C)); experiment: BLI, IgG captured, trimer as analyte
[25] = target: 16055 NFL-L555P (HIV-1 16055 (clade C)); experiment: BLI, IgG captured, trimer as analyte
[26] = target: 16055 NFL-TD+CC2-D4K_L555P (HIV-1 16055 (clade C)); experiment: BLI, IgG captured, trimer as analyte
[27] = target: BG505 NFL-CC2 (HIV-1 BG505 (clade A)); experiment: BLI, IgG captured, trimer as analyte
[28] = target: BG505 NFL-N554P (HIV-1 BG505 (clade A)); experiment: BLI, IgG captured, trimer as analyte
[29] = target: 16055 NFL-TD+CC2-D4K_I559P (HIV-1 16055 (clade C)); experiment: BLI, IgG captured, trimer as analyte
[30] = target: BG505 NFL-TD+CC2-D4K_I559P (HIV-1 BG505 (clade A)); experiment: BLI, IgG captured, trimer as analyte
[31] = target: BG505 NFL (I559P) parental (HIV-1 BG505 (clade A)); experiment: BLI, IgG captured, trimer as analyte

Substance: 2G12 (antibody)
- EC50 [1]: 0.022 µg/mL
- EC50 [2]: 0.027 µg/mL
- EC50 [3]: 0.021 µg/mL
- EC50 [4]: 0.056 µg/mL
- EC50 [5]: 0.066 µg/mL
- EC50 [6]: 0.051 µg/mL
- EC50 [7]: 0.038 µg/mL
- EC50 [8]: 0.11 µg/mL
- EC50 [9]: 0.025 µg/mL
- EC50 [10]: 0.105 µg/mL
- EC50 [11]: 0.031 µg/mL
- EC50 [12]: 0.022 µg/mL
- EC50 [13]: 2.34 µg/mL
- EC50 [14]: 0.043 µg/mL
- EC50 [15]: 0.024 µg/mL
- EC50 [16]: 0.029 µg/mL

Substance: PG16 (antibody)
- EC50 [1]: 0.101 µg/mL
- EC50 [2]: 0.215 µg/mL
- EC50 [3]: 0.307 µg/mL
- EC50 [4]: 0.089 µg/mL
- EC50 [5]: 0.102 µg/mL
- EC50 [6]: 0.121 µg/mL
- EC50 [7]: 0.115 µg/mL
- EC50 [8]: 0.122 µg/mL
- EC50 [9]: 0.143 µg/mL
- EC50 [10]: 0.19 µg/mL
- EC50 [11]: 0.336 µg/mL
- EC50 [12]: 0.216 µg/mL
- EC50 [14]: 0.123 µg/mL
- EC50 [15]: 0.206 µg/mL
- EC50 [16]: 0.144 µg/mL
- Kd [17]: 7.8 nM
- Kd [18]: 70 nM
- koff [18]: 0.0057 s⁻¹
- kon [18]: 81000 M⁻¹ s⁻¹
- Kd [19]: 15 nM
- Kd [20]: 12 nM
- Kd [21]: 15 nM
- koff [21]: 0.0009 s⁻¹
- kon [21]: 61000 M⁻¹ s⁻¹
- Kd [22]: 1.7 nM
- koff [22]: 0.0003 s⁻¹
- kon [22]: 190000 M⁻¹ s⁻¹
- Kd [23]: 7.2 nM
- Kd [24]: 2.8 nM
- koff [24]: 0.0005 s⁻¹
- kon [24]: 170000 M⁻¹ s⁻¹
- Kd [25]: 6.9 nM
- koff [25]: 0.0009 s⁻¹
- kon [25]: 130000 M⁻¹ s⁻¹
- Kd [26]: 16 nM
- koff [26]: 0.0007 s⁻¹
- kon [26]: 43000 M⁻¹ s⁻¹
- Kd [27]: 43 nM
- koff [27]: 0.0033 s⁻¹
- kon [27]: 78000 M⁻¹ s⁻¹
- Kd [28]: 14 nM
- Kd [29]: 23 nM
- koff [29]: 0.001 s⁻¹
- kon [29]: 43000 M⁻¹ s⁻¹
- Kd [30]: 59 nM
- koff [30]: 0.0048 s⁻¹
- kon [30]: 81000 M⁻¹ s⁻¹
- Kd [31]: 15 nM

Substance: PGDM1400 (antibody)
- EC50 [1]: 0.02 µg/mL
- EC50 [2]: 0.042 µg/mL
- EC50 [3]: 0.04 µg/mL
- EC50 [4]: 0.018 µg/mL
- EC50 [5]: 0.016 µg/mL
- EC50 [6]: 0.019 µg/mL
- EC50 [7]: 0.021 µg/mL
- EC50 [8]: 0.025 µg/mL
- EC50 [9]: 0.018 µg/mL
- EC50 [10]: 0.03 µg/mL
- EC50 [11]: 0.038 µg/mL
- EC50 [12]: 0.2 µg/mL
- EC50 [14]: 0.025 µg/mL
- EC50 [15]: 0.038 µg/mL
- EC50 [16]: 0.039 µg/mL
- Kd [17]: 5.1 nM
- Kd [18]: 23 nM
- koff [18]: 0.002 s⁻¹
- kon [18]: 88000 M⁻¹ s⁻¹
- Kd [19]: 13 nM
- Kd [20]: 5 nM
- Kd [21]: 14 nM
- koff [21]: 0.0016 s⁻¹
- kon [21]: 110000 M⁻¹ s⁻¹
- Kd [22]: 1.3 nM
- koff [22]: 0.0004 s⁻¹
- kon [22]: 300000 M⁻¹ s⁻¹
- Kd [23]: 11 nM
- Kd [24]: 1.4 nM
- koff [24]: 0.0003 s⁻¹
- kon [24]: 230000 M⁻¹ s⁻¹
- Kd [25]: 2.3 nM
- koff [25]: 0.0004 s⁻¹
- kon [25]: 200000 M⁻¹ s⁻¹
- Kd [26]: 13 nM
- koff [26]: 0.0016 s⁻¹
- kon [26]: 120000 M⁻¹ s⁻¹
- Kd [27]: 24 nM
- koff [27]: 0.0018 s⁻¹
- kon [27]: 76000 M⁻¹ s⁻¹
- Kd [28]: 2.5 nM
- Kd [29]: 21 nM
- koff [29]: 0.0021 s⁻¹
- kon [29]: 98000 M⁻¹ s⁻¹
- Kd [30]: 18 nM
- koff [30]: 0.0016 s⁻¹
- kon [30]: 88000 M⁻¹ s⁻¹
- Kd [31]: 11 nM

Substance: PGT128 (antibody)
- EC50 [1]: 0.021 µg/mL
- EC50 [2]: 0.041 µg/mL
- EC50 [3]: 0.037 µg/mL
- EC50 [4]: 0.135 µg/mL
- EC50 [5]: 0.068 µg/mL
- EC50 [6]: 0.056 µg/mL
- EC50 [7]: 0.05 µg/mL
- EC50 [8]: 0.071 µg/mL
- EC50 [9]: 0.035 µg/mL
- EC50 [10]: 0.08 µg/mL
- EC50 [11]: 0.036 µg/mL
- EC50 [12]: 0.04 µg/mL
- EC50 [14]: 0.055 µg/mL
- EC50 [15]: 0.036 µg/mL
- EC50 [16]: 0.039 µg/mL
